Test results reported in article PMC3342958, “IDN2 and Its Paralogs Form a Complex Required for RNA–Directed DNA Methylation”.

T1: IDN2 (Arabidopsis thaliana, UniProt Q8VZ79 1-647)
T1 sequence: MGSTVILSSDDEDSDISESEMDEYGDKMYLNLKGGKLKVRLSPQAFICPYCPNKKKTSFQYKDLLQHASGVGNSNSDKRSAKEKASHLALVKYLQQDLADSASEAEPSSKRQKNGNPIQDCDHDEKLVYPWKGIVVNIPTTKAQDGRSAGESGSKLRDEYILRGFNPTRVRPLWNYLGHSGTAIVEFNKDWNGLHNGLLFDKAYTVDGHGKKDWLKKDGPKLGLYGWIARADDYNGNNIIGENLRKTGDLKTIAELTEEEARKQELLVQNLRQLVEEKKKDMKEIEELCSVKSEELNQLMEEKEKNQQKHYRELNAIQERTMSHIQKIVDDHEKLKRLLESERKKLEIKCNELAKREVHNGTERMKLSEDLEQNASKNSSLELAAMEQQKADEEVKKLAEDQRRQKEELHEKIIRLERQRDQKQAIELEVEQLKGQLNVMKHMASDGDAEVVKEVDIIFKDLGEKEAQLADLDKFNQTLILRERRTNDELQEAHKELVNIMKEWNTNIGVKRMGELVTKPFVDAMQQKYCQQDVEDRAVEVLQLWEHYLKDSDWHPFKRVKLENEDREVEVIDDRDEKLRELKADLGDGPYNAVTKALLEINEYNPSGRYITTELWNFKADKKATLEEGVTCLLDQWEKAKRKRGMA

T2: IDN2-a (XS+coiled-coil) (Arabidopsis thaliana, UniProt Q8VZ79 1-511)
T2 sequence: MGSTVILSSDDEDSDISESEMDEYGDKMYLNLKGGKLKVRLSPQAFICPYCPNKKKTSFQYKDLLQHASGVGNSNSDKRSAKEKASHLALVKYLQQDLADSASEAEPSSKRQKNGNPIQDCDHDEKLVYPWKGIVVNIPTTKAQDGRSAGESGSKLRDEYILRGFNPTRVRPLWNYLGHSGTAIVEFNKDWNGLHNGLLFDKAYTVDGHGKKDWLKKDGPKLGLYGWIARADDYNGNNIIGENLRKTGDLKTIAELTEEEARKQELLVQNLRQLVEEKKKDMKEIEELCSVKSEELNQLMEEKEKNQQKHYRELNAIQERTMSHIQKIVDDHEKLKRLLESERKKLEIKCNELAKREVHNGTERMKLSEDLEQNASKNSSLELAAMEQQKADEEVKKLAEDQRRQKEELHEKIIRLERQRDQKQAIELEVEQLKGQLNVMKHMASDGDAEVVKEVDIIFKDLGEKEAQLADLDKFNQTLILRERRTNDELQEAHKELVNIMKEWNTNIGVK

T3: IDP1 (Arabidopsis thaliana, UniProt Q9S9P3 1-634)
T3 sequence: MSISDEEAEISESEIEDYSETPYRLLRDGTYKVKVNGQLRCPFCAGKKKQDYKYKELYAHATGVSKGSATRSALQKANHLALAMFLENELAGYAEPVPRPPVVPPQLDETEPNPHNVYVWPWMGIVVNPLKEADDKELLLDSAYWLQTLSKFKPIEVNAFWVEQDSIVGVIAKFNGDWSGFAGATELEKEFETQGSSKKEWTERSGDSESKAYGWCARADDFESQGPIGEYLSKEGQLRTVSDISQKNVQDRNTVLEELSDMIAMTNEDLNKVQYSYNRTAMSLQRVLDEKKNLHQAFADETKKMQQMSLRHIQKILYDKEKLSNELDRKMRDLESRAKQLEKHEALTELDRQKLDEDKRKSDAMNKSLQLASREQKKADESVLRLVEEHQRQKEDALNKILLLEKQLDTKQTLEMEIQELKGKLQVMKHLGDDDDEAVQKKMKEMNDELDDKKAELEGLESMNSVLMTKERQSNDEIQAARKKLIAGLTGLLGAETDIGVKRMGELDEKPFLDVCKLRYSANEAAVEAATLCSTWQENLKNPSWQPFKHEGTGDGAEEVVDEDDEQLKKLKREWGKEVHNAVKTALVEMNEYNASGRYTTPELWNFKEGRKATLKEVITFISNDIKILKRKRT

T4: IDP2 (Arabidopsis thaliana, UniProt F4JH53 1-635)
T4 sequence: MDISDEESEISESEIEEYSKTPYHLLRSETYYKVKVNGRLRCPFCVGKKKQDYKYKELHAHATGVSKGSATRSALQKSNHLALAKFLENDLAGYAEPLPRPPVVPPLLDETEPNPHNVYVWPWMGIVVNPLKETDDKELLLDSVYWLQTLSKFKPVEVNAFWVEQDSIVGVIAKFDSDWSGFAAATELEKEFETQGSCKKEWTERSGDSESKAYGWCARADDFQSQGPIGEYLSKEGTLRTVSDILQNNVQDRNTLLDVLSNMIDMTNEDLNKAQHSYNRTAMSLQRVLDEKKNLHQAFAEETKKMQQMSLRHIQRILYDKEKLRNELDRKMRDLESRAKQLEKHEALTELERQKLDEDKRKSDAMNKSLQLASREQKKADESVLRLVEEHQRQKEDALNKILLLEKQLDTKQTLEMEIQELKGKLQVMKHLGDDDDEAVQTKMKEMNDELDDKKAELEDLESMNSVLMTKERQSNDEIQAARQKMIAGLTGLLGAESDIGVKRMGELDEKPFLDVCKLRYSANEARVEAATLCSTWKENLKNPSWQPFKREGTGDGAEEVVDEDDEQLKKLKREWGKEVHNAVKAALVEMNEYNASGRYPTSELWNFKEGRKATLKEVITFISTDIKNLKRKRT


Experiments:
IDN2 = molecular target: T1, IDN2; assay: EMSA; 12.5 mM MgCl2; 25 mM HEPES pH 7.6, 50 mM KCl, 0.1 mM EDTA, 12.5 mM MgCl2, 1 mM DTT, 0.5% BSA, 5% glycerol, 2 ug protein, room temperature 30 min; 4% native PAGE; conditions: protein: recombinant, tags: His (pET28a), label: 5'-32P
IDN2-a (XS+coiled-coil) = molecular target: T2, IDN2-a (XS+coiled-coil); assay: as above; conditions: protein: recombinant, tags: His (pET30a), label: 5'-32P
IDP1 = molecular target: T3, IDP1; assay: EMSA; 12.5 mM MgCl2; up to 6.4 ug protein; 25 mM HEPES pH 7.6, 50 mM KCl, 0.1 mM EDTA, 12.5 mM MgCl2, 1 mM DTT, 0.5% BSA, 5% glycerol, 2 ug protein, room temperature 30 min; 4% native PAGE; conditions: protein: recombinant, tags: His (pET28a), label: 5'-32P
IDP2 = molecular target: T4, IDP2; assay: as above; conditions: protein: recombinant, tags: His (pET28a), label: 5'-32P

Binder	binding result (IDN2; 5' overhangs 2 nt at both ends)	binding result (IDN2-a (XS+coiled-coil); 5' overhangs 2 nt at both ends)	binding result (IDP1; 5' overhangs 2 nt at both ends)	binding result (IDP2; 5' overhangs 2 nt at both ends)	binding result (IDN2; blunt)	binding result (IDN2-a (XS+coiled-coil); blunt)	binding result (IDP1; blunt)	binding result (IDP2; blunt)
RD29A dsRNA, 5' overhang (dsRNA) RNA 1: ACGCUUCAUACGUGUCCCUUUAUCUCUCUCAGUCU RNA 2: AGAGACUGAGAGAGAUAAAGGGACACGUAUGAAGC	binds	binds	no binding	no binding				
RD29A dsRNA, blunt (dsRNA) RNA 1: ACGCUUCAUACGUGUCCCUUUAUCUCUCUCAGUCU RNA 2: AGACUGAGAGAGAUAAAGGGACACGUAUGAAGCGU					binds	binds	no binding	no binding
